# Source: US20260327578A1, “TRANSGLUTAMINASES AND USES THEREOF” (CURIE CO. INC., priority 2023, published 2026)
# Test system: N,N-dimethylcasein
# Assay: Chemostability: residual Tgase activity after 24 hour incubation at 20-30 °C, normalized to wild-type
# Type: biochemical
# Settings: improvement relative to wild-type mature Tgase (SEQ ID NO: 2); residual activity after 24 h at 20-30 °C in cell-free extract
# Experimental: Table 5 depicts variants of Streptomyces mobaraensis Tgase and improvement to stability relative to wild-type mature Tgase (SEQ ID NO. 2) as determined in Example 3. Numbering of amino acid positions is in reference to the mature S. mobaraensis Tgase sequence depicted in SEQ ID NO. 2. A “+” indicates an improvement between 1.2 and 2-fold. A “++” indicates an improvement greater than 2-fold.
# To evaluate chemostability, Tgase samples in cell-free extract were assayed for activity, using the assay described in Example 4B, immediately after expression and again following a 24 hour incubation at 20-30° C. Mature Tgase variant residual activity was normalized to the residual activity of the wild-type and results are depicted in Table 5.
# Protein functionalization by Tgase variants was determined by the fluorogenic labeling of casein using monodansylcadaverine (e.g., a commercially available kit such as the Transglutaminase Fluorogenic Activity Assay Kit, T036, Zedira, Germany). Tgase activity was monitored by measuring fluorescence (excitation wavelength 332 nm; emission wavelength 500 nm) using a BioTek Synergy H1 microplate reader. Transglutaminase-catalyzed covalent coupling (crosslinking) of monodansylcadaverine with N,N-dimethylcasein produces a product that causes a shift in intensity and wavelength of fluorescence of the dansyl group now linked to the casein. The relative transglutaminase activity is shown by increase of fluorescence intensity over time. Enzyme variant loading was optimized based on expression levels, ensuring enzyme was the rate limiting factor. Briefly, cell-free reactions (set up as described in Example 2A) were first diluted 10-fold using phosphate buffer, pH 7.4, and a 5 microliter aliquot was analyzed.
row,Stability,Molecule
1,++ (an improvement greater than 2-fold),"S11: Tgase variant S2P Q124I K151R K152R relative to SEQ ID NO: 2 (protein, UniProt P81453 77-407, looked up, variant S2P Q124I K151R K152R) Protein-glutamine …: DPDDRVTPPAEPLDRMPDPYRPSYGRAETVVNNYIRKWQQVYSHRDGRKQQMTEEQREWLSYGCVGVTWVNSGQYPTNRLAFASFDEDRFKNELKNGRPRSGETRAEFEGRVAKESFDEEKGFIRAREVASVMNRALENAHDESAYLDNLRRELANGNDALRNEDARSPFYSALRNTPSFKERNGGNHDPSRMKAVIYSKHFWSGQDRSSSADKRKYGDPDAFRPAPGTGLVDMSRDRNIPRSPTSPGEGFVNFDYGWFGAQTEADADKTVWTHGNHYHAPNGSLGAMHVYESKFRNWSEGYSDFDRGAYVITFIPKSWNTAPDKVKQGWP"
2,++ (an improvement greater than 2-fold),"S14: Tgase variant S2P Q50S Q51E Q56E relative to SEQ ID NO: 2 (protein, UniProt P81453 77-407, looked up, variant S2P Q50S Q51E Q56E) Protein-glutamine …: DPDDRVTPPAEPLDRMPDPYRPSYGRAETVVNNYIRKWQQVYSHRDGRKSEMTEEEREWLSYGCVGVTWVNSGQYPTNRLAFASFDEDRFKNELKNGRPRSGETRAEFEGRVAKESFDEEKGFQRAREVASVMNRALENAHDESAYLDNLKKELANGNDALRNEDARSPFYSALRNTPSFKERNGGNHDPSRMKAVIYSKHFWSGQDRSSSADKRKYGDPDAFRPAPGTGLVDMSRDRNIPRSPTSPGEGFVNFDYGWFGAQTEADADKTVWTHGNHYHAPNGSLGAMHVYESKFRNWSEGYSDFDRGAYVITFIPKSWNTAPDKVKQGWP"
3,++ (an improvement greater than 2-fold),"S16: Tgase variant S2P Q50S Q74A K91H Q124L K151R K152R relative to SEQ ID NO: 2 (protein, UniProt P81453 77-407, looked up, variant S2P Q50S Q74A K91H Q124L K151R K152R) Protein-glutamine …: DPDDRVTPPAEPLDRMPDPYRPSYGRAETVVNNYIRKWQQVYSHRDGRKSQMTEEQREWLSYGCVGVTWVNSGAYPTNRLAFASFDEDRFHNELKNGRPRSGETRAEFEGRVAKESFDEEKGFLRAREVASVMNRALENAHDESAYLDNLRRELANGNDALRNEDARSPFYSALRNTPSFKERNGGNHDPSRMKAVIYSKHFWSGQDRSSSADKRKYGDPDAFRPAPGTGLVDMSRDRNIPRSPTSPGEGFVNFDYGWFGAQTEADADKTVWTHGNHYHAPNGSLGAMHVYESKFRNWSEGYSDFDRGAYVITFIPKSWNTAPDKVKQGWP"
4,++ (an improvement greater than 2-fold),"S6: Tgase variant S2P Q56M Q74S relative to SEQ ID NO: 2 (protein, UniProt P81453 77-407, looked up, variant S2P Q56M Q74S) Protein-glutamine …: DPDDRVTPPAEPLDRMPDPYRPSYGRAETVVNNYIRKWQQVYSHRDGRKQQMTEEMREWLSYGCVGVTWVNSGSYPTNRLAFASFDEDRFKNELKNGRPRSGETRAEFEGRVAKESFDEEKGFQRAREVASVMNRALENAHDESAYLDNLKKELANGNDALRNEDARSPFYSALRNTPSFKERNGGNHDPSRMKAVIYSKHFWSGQDRSSSADKRKYGDPDAFRPAPGTGLVDMSRDRNIPRSPTSPGEGFVNFDYGWFGAQTEADADKTVWTHGNHYHAPNGSLGAMHVYESKFRNWSEGYSDFDRGAYVITFIPKSWNTAPDKVKQGWP"
5,++ (an improvement greater than 2-fold),"S10: Tgase variant S2P Q124E K151R K152R relative to SEQ ID NO: 2 (protein, UniProt P81453 77-407, looked up, variant S2P Q124E K151R K152R) Protein-glutamine …: DPDDRVTPPAEPLDRMPDPYRPSYGRAETVVNNYIRKWQQVYSHRDGRKQQMTEEQREWLSYGCVGVTWVNSGQYPTNRLAFASFDEDRFKNELKNGRPRSGETRAEFEGRVAKESFDEEKGFERAREVASVMNRALENAHDESAYLDNLRRELANGNDALRNEDARSPFYSALRNTPSFKERNGGNHDPSRMKAVIYSKHFWSGQDRSSSADKRKYGDPDAFRPAPGTGLVDMSRDRNIPRSPTSPGEGFVNFDYGWFGAQTEADADKTVWTHGNHYHAPNGSLGAMHVYESKFRNWSEGYSDFDRGAYVITFIPKSWNTAPDKVKQGWP"
6,++ (an improvement greater than 2-fold),"S12: Tgase variant S2P Q124L K151R K152R relative to SEQ ID NO: 2 (protein, UniProt P81453 77-407, looked up, variant S2P Q124L K151R K152R) Protein-glutamine …: DPDDRVTPPAEPLDRMPDPYRPSYGRAETVVNNYIRKWQQVYSHRDGRKQQMTEEQREWLSYGCVGVTWVNSGQYPTNRLAFASFDEDRFKNELKNGRPRSGETRAEFEGRVAKESFDEEKGFLRAREVASVMNRALENAHDESAYLDNLRRELANGNDALRNEDARSPFYSALRNTPSFKERNGGNHDPSRMKAVIYSKHFWSGQDRSSSADKRKYGDPDAFRPAPGTGLVDMSRDRNIPRSPTSPGEGFVNFDYGWFGAQTEADADKTVWTHGNHYHAPNGSLGAMHVYESKFRNWSEGYSDFDRGAYVITFIPKSWNTAPDKVKQGWP"
7,++ (an improvement greater than 2-fold),"S15: Tgase variant S2P Q51P Q56M Q74A K91E relative to SEQ ID NO: 2 (protein, UniProt P81453 77-407, looked up, variant S2P Q51P Q56M Q74A K91E) Protein-glutamine …: DPDDRVTPPAEPLDRMPDPYRPSYGRAETVVNNYIRKWQQVYSHRDGRKQPMTEEMREWLSYGCVGVTWVNSGAYPTNRLAFASFDEDRFENELKNGRPRSGETRAEFEGRVAKESFDEEKGFQRAREVASVMNRALENAHDESAYLDNLKKELANGNDALRNEDARSPFYSALRNTPSFKERNGGNHDPSRMKAVIYSKHFWSGQDRSSSADKRKYGDPDAFRPAPGTGLVDMSRDRNIPRSPTSPGEGFVNFDYGWFGAQTEADADKTVWTHGNHYHAPNGSLGAMHVYESKFRNWSEGYSDFDRGAYVITFIPKSWNTAPDKVKQGWP"

row,Molecule,Stability
1,"S5: Tgase variant S2P Q39N Q51E relative to SEQ ID NO: 2 (protein, UniProt P81453 77-407, looked up, variant S2P Q39N Q51E) Protein-glutamine …: DPDDRVTPPAEPLDRMPDPYRPSYGRAETVVNNYIRKWNQVYSHRDGRKQEMTEEQREWLSYGCVGVTWVNSGQYPTNRLAFASFDEDRFKNELKNGRPRSGETRAEFEGRVAKESFDEEKGFQRAREVASVMNRALENAHDESAYLDNLKKELANGNDALRNEDARSPFYSALRNTPSFKERNGGNHDPSRMKAVIYSKHFWSGQDRSSSADKRKYGDPDAFRPAPGTGLVDMSRDRNIPRSPTSPGEGFVNFDYGWFGAQTEADADKTVWTHGNHYHAPNGSLGAMHVYESKFRNWSEGYSDFDRGAYVITFIPKSWNTAPDKVKQGWP",+ (an improvement between 1.2 and 2-fold)
2,"S8: Tgase variant S2P K49T Q74F relative to SEQ ID NO: 2 (protein, UniProt P81453 77-407, looked up, variant S2P K49T Q74F) Protein-glutamine …: DPDDRVTPPAEPLDRMPDPYRPSYGRAETVVNNYIRKWQQVYSHRDGRTQQMTEEQREWLSYGCVGVTWVNSGFYPTNRLAFASFDEDRFKNELKNGRPRSGETRAEFEGRVAKESFDEEKGFQRAREVASVMNRALENAHDESAYLDNLKKELANGNDALRNEDARSPFYSALRNTPSFKERNGGNHDPSRMKAVIYSKHFWSGQDRSSSADKRKYGDPDAFRPAPGTGLVDMSRDRNIPRSPTSPGEGFVNFDYGWFGAQTEADADKTVWTHGNHYHAPNGSLGAMHVYESKFRNWSEGYSDFDRGAYVITFIPKSWNTAPDKVKQGWP",+ (an improvement between 1.2 and 2-fold)
3,"S7: Tgase variant S2P K49T Q74M relative to SEQ ID NO: 2 (protein, UniProt P81453 77-407, looked up, variant S2P K49T Q74M) Protein-glutamine …: DPDDRVTPPAEPLDRMPDPYRPSYGRAETVVNNYIRKWQQVYSHRDGRTQQMTEEQREWLSYGCVGVTWVNSGMYPTNRLAFASFDEDRFKNELKNGRPRSGETRAEFEGRVAKESFDEEKGFQRAREVASVMNRALENAHDESAYLDNLKKELANGNDALRNEDARSPFYSALRNTPSFKERNGGNHDPSRMKAVIYSKHFWSGQDRSSSADKRKYGDPDAFRPAPGTGLVDMSRDRNIPRSPTSPGEGFVNFDYGWFGAQTEADADKTVWTHGNHYHAPNGSLGAMHVYESKFRNWSEGYSDFDRGAYVITFIPKSWNTAPDKVKQGWP",+ (an improvement between 1.2 and 2-fold)
4,"S13: Tgase variant S2P Q124N K151R K152R relative to SEQ ID NO: 2 (protein, UniProt P81453 77-407, looked up, variant S2P Q124N K151R K152R) Protein-glutamine …: DPDDRVTPPAEPLDRMPDPYRPSYGRAETVVNNYIRKWQQVYSHRDGRKQQMTEEQREWLSYGCVGVTWVNSGQYPTNRLAFASFDEDRFKNELKNGRPRSGETRAEFEGRVAKESFDEEKGFNRAREVASVMNRALENAHDESAYLDNLRRELANGNDALRNEDARSPFYSALRNTPSFKERNGGNHDPSRMKAVIYSKHFWSGQDRSSSADKRKYGDPDAFRPAPGTGLVDMSRDRNIPRSPTSPGEGFVNFDYGWFGAQTEADADKTVWTHGNHYHAPNGSLGAMHVYESKFRNWSEGYSDFDRGAYVITFIPKSWNTAPDKVKQGWP",+ (an improvement between 1.2 and 2-fold)
5,"S9: Tgase variant S2P Q51I K95I relative to SEQ ID NO: 2 (protein, UniProt P81453 77-407, looked up, variant S2P Q51I K95I) Protein-glutamine …: DPDDRVTPPAEPLDRMPDPYRPSYGRAETVVNNYIRKWQQVYSHRDGRKQIMTEEQREWLSYGCVGVTWVNSGQYPTNRLAFASFDEDRFKNELINGRPRSGETRAEFEGRVAKESFDEEKGFQRAREVASVMNRALENAHDESAYLDNLKKELANGNDALRNEDARSPFYSALRNTPSFKERNGGNHDPSRMKAVIYSKHFWSGQDRSSSADKRKYGDPDAFRPAPGTGLVDMSRDRNIPRSPTSPGEGFVNFDYGWFGAQTEADADKTVWTHGNHYHAPNGSLGAMHVYESKFRNWSEGYSDFDRGAYVITFIPKSWNTAPDKVKQGWP",+ (an improvement between 1.2 and 2-fold)
